Source: publication PMC7572642 (Journal of molecular biology, 2020)

Molecular target: the molecule itself
Test: crystal structure

B1: chicken cone PDE6 GAFab regulatory domain (residues 42–458 of the chicken cone PDE6C catalytic subunit) (domain or fragment, UniProt P52731 42-458, looked up)
chain: GDVKEGVSFKDMSRLEECNILFELLTEIQDEAGSMEKIVHKTLQRLSQLLAADRCSMFICRSRNGIPEVATRLLNVTPTSKFEDNLVNPDKETVFPLDIGIAGWVAHTKKFFNIPDVKKNNHFSDYLDKKTGYTTVNMMAIPITQGKEVLAVVMALNKLNASEFSKEDEEVFKKYLNFISLVLRNHHTSYLYNIESRRSQMLLWSANKVFEELTDIERQFHKALYTIRMYLNCERYSVGLLDMTKEKEFYDEWPIRLGEAEPYKGPKTPDGREVNFYKIIDYILHGKEEIKVIPTPPADHWCLISGLPTYVAENGFICNMMNAPADEYFTFQKGPVDETGWVIKNVLSLPIVNKKEEIVGVATFYNRKDGKPFDEYDEQIIETLTQFLGWSVLNTDTYDKMNKLENRKDIAQEMLMY
binding result: binds
